Source: PMC13280575, “The PER2:BRCA1:POU2F1(OCT-1) ternary complex represents a multi-component scaffold model for circadian gene regulation”

Target: POU2F1 (OCT-1) POU DNA-binding domain, wild type (Homo sapiens, UniProt P14859 280-438)
Test: EMSA; dose-dependent, saturation at ~0.8 uM protein; EMSA: 20 mM HEPES pH 7.9, 2 mM MgCl2, 10% glycerol, 2 mM DTT, 36 ng poly(dI-dC), 20 min room temperature; 5% native gel, 0.5x TBE, 4 C
Settings: protein: recombinant; tags: GST fusion, thrombin-cleaved when indicated (state in EMSA not explicit); label: 5'-32P; blunt

Sequence of POU2F1 (OCT-1) POU DNA-binding domain, wild type (P14859 280-438): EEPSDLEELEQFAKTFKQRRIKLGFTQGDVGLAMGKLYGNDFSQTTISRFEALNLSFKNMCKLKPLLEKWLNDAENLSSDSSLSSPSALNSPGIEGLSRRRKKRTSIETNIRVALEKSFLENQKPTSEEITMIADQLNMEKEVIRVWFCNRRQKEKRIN

B1: ESR1 promoter POU2F1 element probe (-56 to -42) (dsDNA)
DNA 1: GCTATGGCCTATGCATATGAAGCCTTTATT
DNA 2: AATAAAGGCTTCATATGCATAGGCCATAGC
binding result: binds
